B1: Lipase, P19515 (parent)
chain: MVLKQRANYLGFLIVFFTAFLVEAVPIKRQSNSTVDSLPPLIPSRTSAPSSSPSTTDPEAPAMSRNGPLPSDVETKYGMALNATSYPDSVVQAMSIDGGIRAATSQEINELTYYTTLSANSYCRTVIPGATWDCIHCDATEDLKIIKTWSTLIYDTNAMVARGDSEKTIYIVFRGSSSIRNWIADLTFVPVSYPPVSGTKVHKGFLDSYGEVQNELVATVLDQFKQYPSYKVAVTGHSLGGATALLCALDLYQREEGLSSSNLFLYTQGQPRVGDPAFANYVVSTGIPYRRTVNERDIVPHLPPAAFGFLHAGEEYWITDNSPETVQVCTSDLETSDCSNSIVPFTSVLDHLSYFGINTGLCT

Variants of: B1
Details: Rhizomucor miehei; pH 8; Thermal; DSF; sodium phosphate buffer 50 mM; structure 6QPR; whole UniProt chain shown

Row | Variant | Tm [°C] | change of melting temperature, mutant - wild type (higher = more stable) [°C]
1 | T112I | 58.1 | -3
2 | T112K | 63.2 | 4.5
3 | T112K E324I | 66.7 | 8
4 | T112K T116I | 64 | 5.3
5 | T112K T116I E324I | 68.1 | 9.4
6 | T112K T116I E324I S150C N157C | 69.3 | 10.6
7 | T112K T116I E324I V283C D332C | 72.3 | 13.6
8 | T112W | 57.8 | -2.2
9 | T116I | 61.1 | 2.4
10 | S208F | 59.2 | -6.4
11 | S208V | 59.1 | -4.9
12 | S208W | 59.5 | 3.9
13 | S208Y | 58.9 | -5.5
14 | N214L | 59.2 | -7.5
15 | N214R | 59.4 | -13.6
16 | N280L | 59.3 | -10
17 | N280W | 55.6 | -3.1
18 | E314I | 58.7 | -2.7
19 | E314V | 58.8 | -5.3
20 | D320L | 58.7 | -3.3

Row | Variant | Tm [°C] | change of melting temperature, mutant - wild type (higher = more stable) [°C]
21 | N321L | 59.3 | -13
22 | E324F | 60.3 | 1.6
23 | E324I | 64.4 | 5.7
24 | E324L | 64.1 | 5.4
25 | E324M | 60 | 1.3
26 | E324P | 61.2 | 2.5
27 | E324R | 59.9 | 1.2
28 | E324T | 62.5 | 3.8
29 | E324V | 64.1 | 5.4
30 | E324W | 61.4 | 2.7
31 | E324Y | 60.8 | 2.1
32 | Q327I | 59.5 | 2.3
33 | D332F | 58.2 | -3
34 | D332L | 57.8 | -2.5
35 | D332P | 58.7 | -3.8
36 | D332R | 58 | -2.8
37 | D332W | 58.7 | -4.5
38 | D332Y | 58.7 | -5.4
39 | N358W | 57.2 | -2.7

From FireProtDB (doi:10.1128/aem.02129-17)
